US10098967B2, “Self-assembly of therapeutic agent-peptide nanostructures” (Ohio State Innovation Foundation, priority 2012, dated 2018)
Structures can show the parent of a compound that is named as a salt. Peptide text beside a SMILES is read from it. * marks the point of attachment. Succinyl(20-O-(20S)-CPT) = CC[C@@]1(OC(=O)CCC(=O)*)C(=O)OCc2c1cc1n(c2=O)Cc2cc3ccccc3nc2-1; Fmoc = O=C(OCC1c2ccccc2-c2ccccc21)*

Legend:
[1] = Solubility in PBS and water; assay type: physicochemical; details: for solubility in water: pure water (H2O)
Description: Three CPT-tetrapeptide (KFKK (SEQ ID NO:6)) conjugates were prepared that have alternating hydrophobic and hydrophilic sequence similar to the dipeptide derivatives with one additional lysine bearing a charged free amine. Compound E, F, and G were soluble in both H2O and PBS but as hydrophobicity decreased by changing the N-termini from -Fmoc to —NH2, solubility in both solutions increased.

HT-29 cells [2] = test: Flow cytometry of cellular uptake as a function of time; assay type: cell-based, human; details: as a function of incubation time
Description: To quantify the cellular uptake as a function of time, flow cytometry was conducted by monitoring the CPT dipetides at a wavelength of 420-470 nm after 335 nm excitation. […] An analogous flow cytometry study was performed with A549 cells, and similar results and trends were observed.

[3] = Hydrolytic (lactone) stability in PBS by HPLC; assay type: physicochemical; details: for lactone form present after 7 days: stored at 10 mM
Description: The hydrolytic stability of C and D was measured by HPLC in PBS at 37° C. over a week as a function of concentration. […] The stability of the lactone depended strongly on the concentration (FIG. 11(A)). For example, the amount of lactone remaining after 7 days decreased from 91 to 30% for C upon changing the concentration from 10 to 0.2 mM). This progression is consistent with the non-covalent nature of the nanotube structures, which depend on concentration. However, even at 0.2 mM in PBS, 80% of the lactone remained after 24 h, in contrast to CPT, of which 17% of its structure was in the lactone form after 24 h under these conditions.

[4] = test system: mesothelioma tumor xenografts; test: Mesothelioma (MSTO) tumor xenograft model in mice; assay type: in vivo; details: for Deaths from Tumor Burden: MSTO model, mice, weekly
Description: (§1) NH2—KK(CPT)-NH2 (D) was evaluated for efficacy in treating Lewis Lung Carcinoma (LLC) and mesothelioma tumor xenografts in mice. Animals were first injected with tumor cells either into the flank (LLC model; FIG. 12) or peritoneum (mesothelioma model; Table 2)), and allowed to develop small tumors. The animals were subsequently administered weekly either intravenous or intraperitoneal drugs or saline (negative control), and monitored for tumor burden and body weight over several weeks. […] But these initial studies were extremely limited in scope, only testing one of 15-20 structures that have been created. This lower efficacy is most likely due to reduced mobility of the 1D nanotubes within tissue, a property that can be beneficially exploited to increase the retention of drug within tumors by allowing the assembly process to respond structurally in the environment of the tumor cells.

[5] = test system: Lewis Lung Carcinoma (LLC); test: Lewis Lung Carcinoma (LLC) flank tumor model in mice; assay type: in vivo; details: tumor cells into the flank, weekly intravenous or intraperitoneal
Description: as §1

HT-29 cells [6] = test: In vitro cell assay, HT-29 viability by MTS colorimetric assay; assay type: cell-based, human; details: HT-29, 4 days growth after exposure, conjugates prepared at 10 mM in PBS, aged 3 days
Description: The conjugates discussed in Examples 1 and 2 were tested for efficacy against killing human colorectal cancer cells in an in vitro cell assay. HT-29 cells were plated into 96-well tissue culture plates, at a density of 5,000 cells/well, and allowed to grow overnight. The conjugates were previously prepared at 10 mM in sterile PBS and allowed to age 3 days, while all other Camptothecin drugs were prepared fresh for each experiment/replicate. Irinotecan HCl was dissolved in pH-neutral, sterile-filtered water, and S-Camptothecin and 10-hydroxycamptothecin were dissolved in DMSO due to solubility issues. Further dilutions of all drugs, both Camptothecin-peptides and free Camptothecin derivatives, were performed in cell culture medium. The cells were then exposed to serial dilutions containing the drugs or cell culture medium alone for the control. A peptide derivative was prepared without Camptothecin to serve as a control to test for toxicity of the peptides themselves, and was also tested in this assay. The cells were then allowed to grow for a further 4 days before being assessed for viability using an MTS colorimetric assay.

[7] = Lactone stability in human serum (HS) by HPLC
Description: FIG. 11 (A) is a graph showing lactone stability of CPT-dipeptides Ac-KK(CPT)-NH2 (C), and NH2—KK(CPT)-NH2 (D) in human serum (HS) at 37° C. (pH 7.4) at 1 and 10 mM, as monitored by HPLC. […] Samples were prepared at 10 mM in PBS and subsequently diluted to 1 mM in HS after 24 h.

CC[C@@]1(OC(=O)CCC(=O)NCCCC[C@H](NC(=O)[C@H](CCCCN)NC(=O)[C@H](Cc2ccccc2)NC(=O)[C@H](CCCCN)NC(=O)OCC2c3ccccc3-c3ccccc32)C(N)=O)C(=O)OCc2c1cc1n(c2=O)Cc2cc3ccccc3nc2-1 [Compound E, Fmoc-KFKK(CPT)-NH2] (Fmoc-KFKK(Succinyl(20-O-(20S)-CPT))-NH2; N-terminus and C-terminus assumed)
solubility in PBS [1]: soluble | solubility in water [1]: soluble

CC[C@@]1(OC(=O)CCC(=O)NCCCC[C@H](NC(=O)[C@@H](N)CCCCN)C(N)=O)C(=O)OCc2c1cc1n(c2=O)Cc2cc3ccccc3nc2-1 [D, NH2—KK(CPT)-NH2]
cellular uptake (fluorescence, 420-470 nm after 335 nm excitation) (HT-29 cells [2]): slightly higher than that of C | lactone form present after 7 days ([3]; 37° C.): 71% | Deaths from Tumor Burden ([4]; 5 mg/kg): 2/5 | Deaths from Tumor Burden ([4]; 15 mg/kg): 2/5 | in vivo efficacy (tumor burden) ([4]; mesothelioma model, tumor cells into the peritoneum, weekly intravenous or intraperitoneal): lower in vivo efficacy | in vivo efficacy (tumor burden) [5]: lower in vivo efficacy | solubility in PBS [1]: limited solubility

CCc1c2c(nc3ccc(OC(=O)N4CCC(N5CCCCC5)CC4)cc13)-c1cc3c(c(=O)n1C2)COC(=O)[C@]3(O)CC [Irinotecan HCl, reference compound]
potency in killing human colorectal cancer cells (viability) (HT-29 cells [6]): the least potent | cellular uptake (fluorescence, 420-470 nm after 335 nm excitation) (HT-29 cells [2]): highest fluorescence | Deaths from Tumor Burden ([4]; 100 mg/kg): 0/5

CC[C@@]1(OC(=O)CCC(=O)NCCCC[C@H](NC(=O)[C@H](CCCCN)NC(C)=O)C(N)=O)C(=O)OCc2c1cc1n(c2=O)Cc2cc3ccccc3nc2-1 [C, Ac-KK(CPT)-NH2]
lactone remaining after 24 h ([3]; 37° C., 0.2 mM): 80% | lactone remaining after 7 days ([3]; 37° C., 0.2 mM): 30% | lactone form present after 7 days ([3]; 37° C.): 91% | lactone stability after dilution to 1 mM [7]: significantly greater stability than D

CC[C@@]1(OC(=O)CCC(=O)NCCCC[C@H](NC(=O)[C@H](CCCCN)NC(=O)OCC2c3ccccc3-c3ccccc32)C(N)=O)C(=O)OCc2c1cc1n(c2=O)Cc2cc3ccccc3nc2-1 [Compound B, Fmoc-KK(CPT)-NH2]
solubility in PBS [1]: poor solubility

CC[C@@]1(OC(=O)CCC(=O)NCCCC[C@H](NC(=O)[C@H](CCCCN)NC(=O)[C@H](Cc2ccccc2)NC(=O)[C@@H](N)CCCCN)C(N)=O)C(=O)OCc2c1cc1n(c2=O)Cc2cc3ccccc3nc2-1 [G, NH2—KFKK(CPT)-NH2] (H-KFKK(Succinyl(20-O-(20S)-CPT))-NH2)
solubility in PBS [1]: soluble | precipitation in PBS at 10 mM [1]: remained highly soluble | solubility in water [1]: soluble

CC[C@@]1(OC(=O)CCC(=O)NCCCC[C@H](NC(=O)[C@H](CCCCNC(C)=O)NC(=O)OCC2c3ccccc3-c3ccccc32)C(N)=O)C(=O)OCc2c1cc1n(c2=O)Cc2cc3ccccc3nc2-1 [A, Fmoc-K(Ac)K(CPT)-NH2]
solubility in water [1]: poor solubility

CC[C@@]1(O)C(=O)OCc2c1cc1n(c2=O)Cc2cc3ccccc3nc2-1 [CPT, Camptothecin, reference compound]
time to hydrolysis to the inactive carboxylate form [3]: within hours | lactone remaining after 24 h ([3]; 37° C., 0.2 mM): 17% | Deaths from Tumor Burden ([4]; 5 mg/kg): 0/5

CC[C@@]1(OC(=O)CCC(=O)NCCCC[C@H](NC(=O)[C@H](CCCCN)NC(=O)[C@H](Cc2ccccc2)NC(=O)[C@H](CCCCN)NC(C)=O)C(N)=O)C(=O)OCc2c1cc1n(c2=O)Cc2cc3ccccc3nc2-1 [Compound F, Ac-KFKK(CPT)-NH2] (Ac-KFKK(Succinyl(20-O-(20S)-CPT))-NH2)
solubility in PBS [1]: soluble | precipitation in PBS at 10 mM [1]: remained highly soluble | solubility in water [1]: soluble
